Experimental findings from PMC3078985 are described below.

This assay deals with CLS (C-terminal fragment of human L-selectin with its entire transmembrane and cytoplasmic domains) (human). Put plainly: AUC.

Substance “CLS (C-terminal fragment of human L-selectin with its entire transmembrane and cytoplasmic domains) (domain or fragment)” yielded a pKd (molar fraction units) of 1.49.
